{"source": "patent US20040228836A1", "biological_target": "intranuclear antigens consisting of histone DNA complexes (in fixed Raji cells)", "test": "125I-labeled MAb incubated with fixed Raji cells; Scatchard analysis of bound radioactivity"}
{"substance": "chimeric TNT-1 monoclonal antibody (chTNT-1)", "values": [{"measurement": "Ka", "value": "2.5e+09", "unit": "M⁻¹"}]}
